Legend:
Fmoc-Val-Pro-Doxorubicin = biological target: T1, Fmoc-Val-Pro-Doxorubicin
T1 chain: VP

H-Asp-Pro-NAP-TSAO = biological target: T2, H-Asp-Pro-NAP-TSAO
T2 chain: DP

H-Gly-3.4Hypro-NAP-TSAO = biological target: T3, H-Gly-3.4Hypro-NAP-TSAO
T3 chain: GP

H-Gly-Pro-NAP-TSAO = biological target: T4, H-Gly-Pro-NAP-TSAO
T4 chain: GP

[1] = biological target: T5, H-Lys-Pro-Asp-Pro-NAP-TSAO
T5 chain: KPDP

H-Lys-Pro-NAP-TSAO = biological target: T6, H-Lys-Pro-NAP-TSAO
T6 chain: KP

H-Tyr-Pro-NAP-TSAO = biological target: T7, H-Tyr-Pro-NAP-TSAO
T7 chain: YP

H-Val-4HyPro-NAP-TSAO = biological target: T8, H-Val-4HyPro-NAP-TSAO
T8 chain: VP

H-Val-Ala-NAP-TSAO = biological target: T9, H-Val-Ala-NAP-TSAO
T9 chain: VA

[2] = biological target: T10, H-Val-Ala-Val-Pro-NAP-TSAO
T10 chain: VAVP

H-Val-D-Pro-NAP-TSAO = biological target: T11, H-Val-D-Pro-NAP-TSAO
T11 chain: VP

H-Val-Gly-NAP-TSAO = biological target: T12, H-Val-Gly-NAP-TSAO
T12 chain: VG

H-Val-Leu-NAP-TSAO = biological target: T13, H-Val-Leu-NAP-TSAO
T13 chain: VL

H-Val-Phe-NAP-TSAO = biological target: T14, H-Val-Phe-NAP-TSAO
T14 chain: VF

[3] = biological target: T15, H-Val-Pro-6-Aminoquinoline
T15 chain: VP

H-Val-Pro-Doxorubicin = biological target: T16, H-Val-Pro-Doxorubicin
T16 chain: VP

H-Val-Pro-NAP-TSAO = biological target: T17, H-Val-Pro-NAP-TSAO
T17 chain: VP

H-Val-Pro-Val-NAP-TSAO = biological target: T18, H-Val-Pro-Val-NAP-TSAO
T18 chain: VPV

H-Val-Pro-Val-NHP-TSAO = biological target: T19, H-Val-Pro-Val-NHP-TSAO
T19 chain: VPV

[4] = biological target: T20, H-Val-Pro-Val-Pro-NAP-TSAO
T20 chain: VPVP

[5] = biological target: T21, Me-NH-Val-Pro-Val-NHP-TSAO
T21 chain: VPV

[6] = biological target: T22, NH2-Val-HyPro(Bzl)-NAP-TSAO
T22 chain: VP

Val-Pro-PI 1 = biological target: T23, Val-Pro-PI 1
T23 chain: VP

[7] = biological target: T24, Z-Val-Pro-Val-Pro-NAP-TSAO
T24 chain: VPVP

B1: purified CD26 (dipeptidyl-peptidase IV, EC 3.4.14.5) (protein)
chain: MKTPWKVLLGLLGAAALVTIITVPVVLLNKGTDDATADSRKTYTLTDYLKNTYRLKLYSLRWISDHEYLYKQENNILVFNAEYGNSSVFLENSTFDEFGHSINDYSISPDGQFILLEYNYVKQWRHSYTASYDIYDLNKRQLITEERIPNNTQWVTWSPVGHKLAYVWNNDIYVKIEPNLPSYRITWTGKEDIIYNGITDWVYEEEVFSAYSALWWSPNGTFLAYAQFNDTEVPLIEYSFYSDESLQYPKTVRVPYPKAGAVNPTVKFFVVNTDSLSSVTNATSIQITAPASMLIGDHYLCDVTWATQERISLQWLRRIQNYSVMDICDYDESSGRWNCLVARQHIEMSTTGWVGRFRPSEPHFTLDGNSFYKIISNEEGYRHICYFQIDKKDCTFITKGTWEVIGIEALTSDYLYYISNEYKGMPGGRNLYKIQLSDYTKVTCLSCELNPERCQYYSVSFSKEAKYYQLRCSGPGLPLYTLHSSVNDKGLRVLEDNSALDKMLQNVQMPSKKLDFIILNETKFWYQMILPPHFDKSKKYPLLLDVYAGPCSQKADTVFRLNWATYLASTENIIVASFDGRGSGYQGDKIMHAINRRLGTFEVEDQIEAARQFSKMGFVDNKRIAIWGWSYGGYVTSMVLGSGSGVFKCGIAVAPVSRWEYYDSVYTERYMGLPTPEDNLDHYRNSTVMSRAENFKQVEYLLIHGTADDNVHFQQSAQISKALVDVGVDFQAMWYTDEDHGIASSTAHQHIYTHMSHFIKQCFSLP
Question: Which % conversion, 1 h (Fmoc-Val-Pro-Doxorubicin) does the source give for B1 here?
Answer: 0%

Question: What about the % conversion, 4 h (Fmoc-Val-Pro-Doxorubicin) of the same protein?
Answer: 0%

Question: What about the % conversion, 24 h (Fmoc-Val-Pro-Doxorubicin) of the same protein?
Answer: 0%

Question: And the Conversion %, 4 h (H-Asp-Pro-NAP-TSAO)?
Answer: 7.9%

Question: What about the Conversion %, 24 h (H-Asp-Pro-NAP-TSAO) of the same protein?
Answer: 30%

Question: What about the Conversion %, 4 h (H-Gly-3.4Hypro-NAP-TSAO) of the same protein?
Answer: 0%

Question: And the Conversion %, 24 h (H-Gly-3.4Hypro-NAP-TSAO)?
Answer: 0%

Question: What about the Conversion %, 1 h (H-Gly-Pro-NAP-TSAO) of the same protein?
Answer: 5%

Question: And the Conversion %, 4 h (H-Gly-Pro-NAP-TSAO)?
Answer: 20%

Question: And the Conversion %, 24 h (H-Gly-Pro-NAP-TSAO)?
Answer: 58%

Question: What about the % conversion, 1 h, to the dipeptide intermediate (a) [1] of the same protein?
Answer: 88%

Question: And the % conversion, 1 h, to the parent compound (b) [1]?
Answer: 2.1%

Question: And the % conversion, 4 h, to the dipeptide intermediate (a) [1]?
Answer: 86%

Question: What about the % conversion, 4 h, to the parent compound (b) [1] of the same protein?
Answer: 6%

Question: What about the % conversion, 24 h, to the dipeptide intermediate (a) [1] of the same protein?
Answer: 74%

Question: What about the % conversion, 24 h, to the parent compound (b) [1] of the same protein?
Answer: 26%

Question: What about the Conversion %, 4 h (H-Lys-Pro-NAP-TSAO) of the same protein?
Answer: 85%

Question: What about the Conversion %, 24 h (H-Lys-Pro-NAP-TSAO) of the same protein?
Answer: 99%

Question: What about the Conversion %, 1 h (H-Tyr-Pro-NAP-TSAO) of the same protein?
Answer: 43%

Question: What about the Conversion %, 4 h (H-Tyr-Pro-NAP-TSAO) of the same protein?
Answer: 56%

Question: And the Conversion %, 24 h (H-Tyr-Pro-NAP-TSAO)?
Answer: 79%

Question: And the Conversion %, 1 h (H-Val-4HyPro-NAP-TSAO)?
Answer: 4.1%

Question: What about the Conversion %, 4 h (H-Val-4HyPro-NAP-TSAO) of the same protein?
Answer: 18%

Question: And the Conversion %, 24 h (H-Val-4HyPro-NAP-TSAO)?
Answer: 53%

Question: What about the Conversion %, 1 h (H-Val-Ala-NAP-TSAO) of the same protein?
Answer: 0%

Question: And the Conversion %, 4 h (H-Val-Ala-NAP-TSAO)?
Answer: 6.5%

Question: And the Conversion %, 24 h (H-Val-Ala-NAP-TSAO)?
Answer: 35%

Question: What about the % conversion, 1 h [2] of the same protein?
Answer: 12%

Question: And the % conversion, 4 h [2]?
Answer: 54%

Question: And the % conversion, 24 h [2]?
Answer: 70%

Question: And the Conversion %, 1 h (H-Val-D-Pro-NAP-TSAO)?
Answer: 0%

Question: And the Conversion %, 4 h (H-Val-D-Pro-NAP-TSAO)?
Answer: 1%

Question: And the Conversion %, 24 h (H-Val-D-Pro-NAP-TSAO)?
Answer: 2%

Question: And the Conversion %, 1 h (H-Val-Gly-NAP-TSAO)?
Answer: 0%

Question: And the Conversion %, 4 h (H-Val-Gly-NAP-TSAO)?
Answer: 0%

Question: And the Conversion %, 24 h (H-Val-Gly-NAP-TSAO)?
Answer: 0%

Question: What about the Conversion %, 1 h (H-Val-Leu-NAP-TSAO) of the same protein?
Answer: 0%

Question: And the Conversion %, 4 h (H-Val-Leu-NAP-TSAO)?
Answer: 0%

Question: What about the Conversion %, 24 h (H-Val-Leu-NAP-TSAO) of the same protein?
Answer: 0%

Question: What about the Conversion %, 1 h (H-Val-Phe-NAP-TSAO) of the same protein?
Answer: 0%

Question: And the Conversion %, 4 h (H-Val-Phe-NAP-TSAO)?
Answer: 0%

Question: And the Conversion %, 24 h (H-Val-Phe-NAP-TSAO)?
Answer: 0%

Question: And the % conversion, 1 h [3]?
Answer: 99%

Question: What about the % conversion, 4 h [3] of the same protein?
Answer: 100%

Question: What about the % conversion, 24 h [3] of the same protein?
Answer: 100%

Question: And the % conversion, 1 h (H-Val-Pro-Doxorubicin)?
Answer: 78%

Question: And the % conversion, 4 h (H-Val-Pro-Doxorubicin)?
Answer: 95%

Question: What about the % conversion, 24 h (H-Val-Pro-Doxorubicin) of the same protein?
Answer: 97%

Question: What about the Conversion %, 1 h (H-Val-Pro-NAP-TSAO) of the same protein?
Answer: 37%

Question: And the Conversion %, 4 h (H-Val-Pro-NAP-TSAO)?
Answer: 62%

Question: What about the Conversion %, 24 h (H-Val-Pro-NAP-TSAO) of the same protein?
Answer: 61%

Question: And the “conversion of 50 µM CAM-405 to CAM-212 by 5.7 mUnits purified CD26, 30 min (HPLC)” value (H-Val-Pro-NAP-TSAO)?
Answer: fifty percent of the TSAO dipeptide derivative was converted to CAM-212 within 30 min

Question: What about the “conversion of 50 µM CAM-405 to CAM-212 by 5.7 mUnits purified CD26, first 10 min (HPLC)” value (H-Val-Pro-NAP-TSAO) of the same protein?
Answer: Within the first 10 min of the reaction, at least 20% of CAM-405 had been converted to CAM-212

Question: And the “hydrolysis of 50 µM CAM-405 by 5.7 mUnits purified CD26, 60 min (HPLC)” value (H-Val-Pro-NAP-TSAO)?
Answer: ˜67% of CAM-405 was hydrolysed after 60 min

Question: And the Conversion %, 4 h (H-Val-Pro-Val-NAP-TSAO)?
Answer: 51%

Question: And the Conversion %, 24 h (H-Val-Pro-Val-NAP-TSAO)?
Answer: 70%

Question: What about the Conversion %, 1 h (H-Val-Pro-Val-NHP-TSAO) of the same protein?
Answer: 33%

Question: And the Conversion %, 4 h (H-Val-Pro-Val-NHP-TSAO)?
Answer: 60%

Question: And the % conversion, 1 h [4]?
Answer: 43%

Question: What about the % conversion, 4 h [4] of the same protein?
Answer: 86%

Question: And the % conversion, 24 h [4]?
Answer: 88%

Question: And the Conversion %, 1 h [5]?
Answer: 0%

Question: And the Conversion %, 4 h [5]?
Answer: 0%

Question: And the Conversion %, 24 h [5]?
Answer: 0%

Question: And the Conversion %, 4 h [6]?
Answer: 0%

Question: And the Conversion %, 24 h [6]?
Answer: 0%

Question: What about the “conversion of PI-2 to PI-1 by purified CD26” value (Val-Pro-PI 1) of the same protein?
Answer: Within 60 min, PI-2 was completely converted to PI-1 by purified CD26

Question: And the % conversion, 1 h [7]?
Answer: 0%

Question: And the % conversion, 4 h [7]?
Answer: 0%

Question: And the % conversion, 24 h [7]?
Answer: 0%

Source: patent US20070275900
